Laboratory results: US20100256217
Numbering of substitutions follows the chain as printed.

T1: recombinant WNV capsid mutant rC(S36A), N-terminal hexa-histidine tag, expressed in E. coli from pQE30, Q9Q6P4
T1 chain: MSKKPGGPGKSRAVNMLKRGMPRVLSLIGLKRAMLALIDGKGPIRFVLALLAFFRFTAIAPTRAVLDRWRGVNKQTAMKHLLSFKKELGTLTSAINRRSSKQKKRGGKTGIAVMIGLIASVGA

T2: recombinant WNV capsid protein with an N-terminal hexa-histidine tag, expressed in E. coli from pQE30, Q9Q6P4
T2 chain: T1 chain with A36S

B1: recombinant CK2 (whole enzyme, Biomol) (protein)
chain 1: MSGPVPSRARVYTDVNTHRPREYWDYESHVVEWGNQDDYQLVRKLGRGKYSEVFEAINITNNEKVVVKILKPVKKKKIKREIKILENLRGGPNIITLADIVKDPVSRTPALVFEHVNNTDFKQLYQTLTDYDIRFYMYEILKALDYCHSMGIMHRDVKPHNVMIDHEHRKLRLIDWGLAEFYHPGQEYNVRVASRYFKGPELLVDYQMYDYSLDMWSLGCMLASMIFRKEPFFHGHDNYDQLVRIAKVLGTEDLYDYIDKYNIELDPRFNDILGRHSRKRWERFVHSENQHLVSPEALDFLDKLLRYDHQSRLTAREAMEHPYFYTVVKDQARMGSSSMPGGSTPVSSANMMSGISSVPTPSPLGPLAGSPVIAAANPLGMPVPAAAGAQQ
chain 2: not shown
B2: purified recombinant CK2α subunit protein (Biomol) (protein)
chain: B1 chain 1

Columns and labels:
[1] = target: CKII-Pep, commercial CK2 substrate peptide
[2] = target: T1, recombinant WNV capsid mutant rC(S36A), …
[3] = target: T2, recombinant WNV capsid protein with an …

| Protein | dot-blot kinase assay [1] | in vitro phosphorylation (CK2 kinase assay, autoradiography) [2] | in vitro phosphorylation (32P-ATP kinase assay, autoradiography) [3] | in vitro phosphorylation (kinase assay with a single recombinant subunit) [3] |
| --- | --- | --- | --- | --- |
| B1 | Only Cp(30-48) and CK-II-Pep peptides reacted positively to CK2 assay | the phosphorylation signal was totally absent from C(S36A) while the wild rC still was labeled in the in vitro assay | purified fractions yielded was phosphorylated by CK2 | – |
| B2 | – | – | – | Neither of the subunits was able to phosphorylate the protein by themselves |
